Data set [1] has as its system CC(C)(COP(=O)(O)OP(=O)(O)OC[C@H]1O[C@@H](n2cnc3c(N)ncnc32)[C@H](O)[C@@H]1OP(=O)(O)O)[C@@H](O)C(=O)NCCC(=O)NCCSC(=O)CF. Kind of data set: purified protein. The following applies: 100 mM Tris-HCl pH 7.6, 25 °C, 0.5 mM DTNB. It is filed as biochemical, Streptantibioticus cattleyicolor.
The test system of data set [2] is CC(=O)SCCNC(=O)CCNC(=O)[C@H](O)C(C)(C)COP(=O)(O)OP(=O)(O)OC[C@H]1O[C@@H](n2cnc3c(N)ncnc32)[C@H](O)[C@@H]1OP(=O)(O)O. Kind of data set: purified protein. The format is biochemical, Streptantibioticus cattleyicolor. As to conditions: 100 mM Tris-HCl pH 7.6, 25 °C, 0.5 mM DTNB.
Data set [3] deals with the molecule itself. Kind of data set: crystal structure.
Data set [4] deals with the molecule itself. Description: SEC.

Positions count from the first letter of the chain named. Names may count otherwise.

A word on the Km: it is the concentration of substrate that gives half-maximal velocity. A word on the kcat: it is the maximal rate divided by the concentration of active sites. One may read the kcat/Km as the turnover number divided by the Michaelis constant. In the case of FlK (Streptantibioticus cattleyicolor), in data set [1], the Km worked out at 8 ± 1 µM, the kcat is 390 ± 20 s⁻¹ and the kcat/Km was 5e+07 ± 1e+07 M⁻¹ s⁻¹. For the same molecule, in data set [2], the Km entry is “(2.1 ± 0.5) × 10^3 μM”, the kcat is 0.06 ± 0.01 s⁻¹ and the kcat/Km amounted to 30 ± 10 M⁻¹ s⁻¹.
“FlK (Streptantibioticus cattleyicolor; F33A)”: in data set [1], the Km entry is “(1.5 ± 0.4) × 10^3 μM”, the kcat came out at 27 ± 4 s⁻¹ and the kcat/Km stood at 18000 ± 5000 M⁻¹ s⁻¹.
As for “FlK (Streptantibioticus cattleyicolor; F36A)”, in data set [1], the Km entry is “(7.1 ± 0.8) × 10^2 μM”, the kcat came out at 270 ± 20 s⁻¹ and the kcat/Km amounted to 370000 ± 50000 M⁻¹ s⁻¹.
Consider “FlK (Streptantibioticus cattleyicolor; H76A)”, for which, in data set [1], the Km result was “(2.0 ± 0.7) × 10^1 μM”, the kcat came out at 0.003 ± 0.0003 s⁻¹ and the kcat/Km amounted to 150 ± 50 M⁻¹ s⁻¹.
For the molecule “FlK (Streptantibioticus cattleyicolor; L26A)”, in data set [1], the Km entry is listed as “(1.2 ± 0.2) × 10^2 μM”, the kcat was 6.7 ± 0.1 s⁻¹ and the kcat/Km was determined as 57000 ± 8000 M⁻¹ s⁻¹.
With “FlK (Streptantibioticus cattleyicolor; T42A)”, in data set [1], the Km entry is “(1.1 ± 0.4) × 10^2 μM”, the kcat turned out to be 0.45 ± 0.09 s⁻¹ and the kcat/Km was 4000 ± 2000 M⁻¹ s⁻¹.
Regarding “FlK (Streptantibioticus cattleyicolor; T42C)”, in data set [1], the Km result is reported as “(3.6 ± 1) × 10^2 μM”, the kcat is 11 ± 2 s⁻¹ and the kcat/Km came to 30000 ± 10000 M⁻¹ s⁻¹.
In the case of “FlK (Streptantibioticus cattleyicolor; T42S)”, in data set [1], the Km entry is “(6 ± 2) × 10^1 μM”, the kcat was 19 ± 4 s⁻¹ and the catalytic efficiency (kcat/Km) amounted to 300000 ± 100000 M⁻¹ s⁻¹. Also, in data set [2], the Km result is given as “(6.1 ± 0.9) × 10^1 μM”, the kcat was 0.01 ± 0.001 s⁻¹ and the catalytic efficiency (kcat/Km) was determined as 160 ± 30 M⁻¹ s⁻¹.
Consider “FlK (Streptantibioticus cattleyicolor; V23A)”, for which, in data set [1], the Km entry was “(3.0 ± 1.5) × 10^2 μM”, the kcat amounted to 150 ± 30 s⁻¹ and the kcat/Km came to 500000 ± 300000 M⁻¹ s⁻¹.

B1: FlK-F36A (enzyme, Streptomyces cattleya)
chain: MKDGMRVGERFTHDFVVPPHKTVRHLYPESPEFAEAPEVFATGFMVGLMEWACVRAMAPYLEPGEGSLGTAICVTHTAATPPGLTVTVTAELRSVEGRRLSWRVSAHDGVDEIGSGTHERAVIHLEKFNAKVRQKTPAG
For the molecule B1, in data set [3], the binding result is “binds”.

B2: FlK-E50Q (enzyme, Streptomyces cattleya)
chain: B1 chain with A36F, E50Q
The term stoichiometry N denotes a count of units in the complex or per binding partner. As to B2, the “stoichiometry N” value in data set [4] is 2.

Source of the values: article PMC3461317 (Biochemistry, 2010).
